Results on two substances are retold here after paper doi:10.1101/2021.10.11.463889.

In the assay the target is GST-tagged proline-rich domain (PRD) of Dyn2 (human). Nature of the assay: pull-down.
GST-tagged proline-rich domain (PRD) of Dyn2 (human), sequence (P50570 whole entry, the tested form may be a part): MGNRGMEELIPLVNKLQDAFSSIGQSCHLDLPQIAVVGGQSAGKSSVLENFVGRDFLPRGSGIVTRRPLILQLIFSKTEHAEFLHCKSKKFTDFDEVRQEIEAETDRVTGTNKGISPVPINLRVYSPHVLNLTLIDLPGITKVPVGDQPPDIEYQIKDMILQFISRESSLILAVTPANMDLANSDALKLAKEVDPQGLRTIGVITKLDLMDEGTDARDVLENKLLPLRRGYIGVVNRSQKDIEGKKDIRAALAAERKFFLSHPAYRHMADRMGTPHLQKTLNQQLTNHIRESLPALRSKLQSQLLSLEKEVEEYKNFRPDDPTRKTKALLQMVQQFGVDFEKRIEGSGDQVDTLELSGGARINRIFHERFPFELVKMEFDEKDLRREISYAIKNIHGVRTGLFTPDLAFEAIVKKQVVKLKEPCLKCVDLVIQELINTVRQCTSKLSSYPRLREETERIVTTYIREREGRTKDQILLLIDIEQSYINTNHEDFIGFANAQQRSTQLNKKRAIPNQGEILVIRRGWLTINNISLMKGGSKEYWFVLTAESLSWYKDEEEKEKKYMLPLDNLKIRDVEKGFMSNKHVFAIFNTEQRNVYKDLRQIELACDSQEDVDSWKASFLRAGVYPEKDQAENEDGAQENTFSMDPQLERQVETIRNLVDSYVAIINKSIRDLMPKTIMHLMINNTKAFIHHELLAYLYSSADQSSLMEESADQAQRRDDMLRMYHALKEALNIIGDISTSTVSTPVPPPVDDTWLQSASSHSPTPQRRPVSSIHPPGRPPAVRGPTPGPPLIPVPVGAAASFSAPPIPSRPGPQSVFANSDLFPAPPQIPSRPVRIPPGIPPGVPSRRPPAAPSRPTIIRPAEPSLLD

On to “His-tagged human Bin1 isoform 8, CNM-associated mutant K436X (domain or fragment)”, for which the Kd (commonly a measure of binding affinity in units of concentration) turned out to be 267 nM.

For “His-tagged human Bin1 isoform 8, wild type (natural protein)”, the equilibrium dissociation constant (Kd) was determined as 180 nM.
